Assay results reported in the supplement of paper PMC10724198.
± gives the standard deviation of the averaged measurements.

Tested on: Saccharomyces cerevisiae
Assay: protein stability index of tFT-peptide fusion (C-terminal peptide) (PSI (0-1 scale)); higher = more stable (slower turnover)
Details: genetic background: wild type; temperature: 30 C
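Further: PSI is a weighted mean of sequencing reads over stability bins, variants kept only with over 10 reads, mCherry proximal and sfGFP distal, peptide attached via GGGS linker.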

PPPRPGLPAPVP
protein stability index: 0.683 ± 0.05

PPPRPLPVLFLP
protein stability index: 0.611 ± 0.06

PPPRPPHAPFSL
protein stability index: 0.702 ± 0.039

PPPRPPHGPLPY
protein stability index: 0.658 ± 0.037

PPPRPPPPSCPP
protein stability index: 0.685 ± 0.092

PPPRPPRPPLPS
protein stability index: 0.727 ± 0.02

PPPRPTPAPPRV
protein stability index: 0.65 ± 0.032

PPPRSPLFSLPP
protein stability index: 0.678 ± 0.032

PPPSALPPLPQP
protein stability index: 0.712 ± 0.01

PPPSCPPPPSRS
protein stability index: 0.7754 ± 0.0068

PPPSHSLPSLPI
protein stability index: 0.626 ± 0.033

PPPSLPPLPSPS
protein stability index: 0.725 ± 0.027

PPPSLPPPSATA
protein stability index: 0.689 ± 0.087

PPPSLSPAPAPP
protein stability index: 0.736 ± 0.027

PPPSPCHPPSPP
protein stability index: 0.67 ± 0.12

PPPSPPDCLPLP
protein stability index: 0.649 ± 0.086

PPPSPPLPRHLA
protein stability index: 0.746 ± 0.06

PPPSPPSVPRAS
protein stability index: 0.643 ± 0.027

PPPSRPPQLHPA
protein stability index: 0.605 ± 0.021

PPPSSPPTHLTS
protein stability index: 0.678 ± 0.012

PPPSSPTPPHSR
protein stability index: 0.738 ± 0.082

PPPSTRSNPGLD
protein stability index: 0.745 ± 0.028

PPPSVPPSLTPP
protein stability index: 0.693 ± 0.03

PPPTHPTSTSSI
protein stability index: 0.699 ± 0.02

PPPTLPPPSPFP
protein stability index: 0.705 ± 0.038

PPPTPKITPMSI
protein stability index: 0.6871 ± 0.0018

PPPTPPSRILPA
protein stability index: 0.699 ± 0.016

PPPTPRPAFLPP
protein stability index: 0.6969 ± 0.0037

PPPTPSDPQNSS
protein stability index: 0.644 ± 0.007

PPPWSFPCPSAS
protein stability index: 0.778 ± 0.084

PPPYPRSTPFVP
protein stability index: 0.6774 ± 0.005

PPQALPHSSKQA
protein stability index: 0.6931 ± 0.0025

PPRLHAPPPSPP
protein stability index: 0.716 ± 0.016

PPRPLLPTPSPL
protein stability index: 0.7 ± 0.056

PPRPLPARRLSF
protein stability index: 0.753 ± 0.081

PPRPLPPPPPPT
protein stability index: 0.716 ± 0.017

PPRPPPSPPLPP
protein stability index: 0.696 ± 0.062

PPRPPSPPPPSP
protein stability index: 0.632 ± 0.02

PPRPRPPSSPST
protein stability index: 0.641 ± 0.0099

PPRPSPPPLPPS
protein stability index: 0.683 ± 0.051

PPRRAPPPIRLP
protein stability index: 0.746 ± 0.074

PPRSFLPPRFSW
protein stability index: 0.702 ± 0.066

PPRSFPGTPLIA
protein stability index: 0.67 ± 0.069

PPRSLPPPTSPL
protein stability index: 0.731 ± 0.011

PPRTPFSLPPPA
protein stability index: 0.73 ± 0.054

PPRTSPRLLPPP
protein stability index: 0.686 ± 0.0069

PPRVFGFFPFPP
protein stability index: 0.774 ± 0.079

PPSAPLPTLLHH
protein stability index: 0.722 ± 0.094

PPSAPPLPPLPL
protein stability index: 0.69 ± 0.014

PPSFLLVCPRPP
protein stability index: 0.6897 ± 0.0068

PPSHGRSSQSPR
protein stability index: 0.731 ± 0.1

PPSLAPPPTSRP
protein stability index: 0.679 ± 0.054

PPSLGPHSTSCD
protein stability index: 0.715 ± 0.071

PPSLPPLPPSPA
protein stability index: 0.656 ± 0.085

PPSLTPAALPAA
protein stability index: 0.745 ± 0.072

PPSPASASPDRR
protein stability index: 0.695 ± 0.022

PPSPELALSLGH
protein stability index: 0.673 ± 0.038

PPSPHPSLPPPR
protein stability index: 0.668 ± 0.024

PPSPLQGRICFV
protein stability index: 0.698 ± 0.032

PPSPLSTLPSPH
protein stability index: 0.679 ± 0.045

PPSPPPAFPPPA
protein stability index: 0.64 ± 0.059

PPSPPPPPAAST
protein stability index: 0.768 ± 0.13

PPSPPSLRSSPP
protein stability index: 0.744 ± 0.13

PPSPPVPRFSLL
protein stability index: 0.69503 ± 0.00011

PPSPPVRPPLLA
protein stability index: 0.617 ± 0.14

PPSPSPPPYHFP
protein stability index: 0.676 ± 0.023

PPSPSSLPPPPL
protein stability index: 0.733 ± 0.0075

PPSPTPPLPSCP
protein stability index: 0.702 ± 0.029

PPSRDRSGCISV
protein stability index: 0.709 ± 0.021

PPSRDSHPPPPP
protein stability index: 0.627 ± 0.02

PPSRLLFPSPPA
protein stability index: 0.683 ± 0.055

PPSRLSPPPPPS
protein stability index: 0.71 ± 0.016

PPSRPLPALPFP
protein stability index: 0.676 ± 0.097

PPSRPLPSPLPP
protein stability index: 0.631 ± 0.03

PPSRPPAPSPRS
protein stability index: 0.695 ± 0.037

PPSRPPPARREP
protein stability index: 0.7 ± 0.022

PPSRPSASFALL
protein stability index: 0.743 ± 0.026

PPSSYGCGRQMP
protein stability index: 0.645 ± 0.038

PPTAPCPPPLPP
protein stability index: 0.645 ± 0.012

PPTFFQRSPLRP
protein stability index: 0.681 ± 0.033

PPTFLPLPSSPP
protein stability index: 0.651 ± 0.079
